Source: patent US20230313187A1, “MODIFICATIONS OF MAMMALIAN CELLS USING ARTIFICIAL MICRO-RNA TO ALTER THEIR PROPERTIES AND THE COMPOSITIONS OF THEIR PRODUCTS” (DNA TWOPOINTO INC., priority 2020, published 2023)

B1: SEQ ID NO: 599: four-hairpin amiRNA, guides SEQ ID NOs 103, 104, 102, 105 to Cricetulus griseus interferon receptor subunit 2 mRNA (nucleic acid)
chain: ATCTGATCTTCTGAAGAAAATATATTTCTTTTTATTCATAGCTCTTAACTAGTGGTGATAGCAATGTCAGCAGTGCCTAAGACTATCAGCAAGAACCAGGGTGAAGCCACAGATGCCTGGTTCTTACTGATAGTCTCAAGTAAGGTTGACCATACTCTACTCTAGTTATATTCTTTAGGCACGAATGTGTGTTTAAAAAAAATAAAAACTAGTGGTGATAGCAATGTCAGCAGTGCCTTTGAAGATAACTTTGTCCCCGGGTGAAGCCACAGATGCCGGGGACAACGTTATCTTCACAAGTAAGGTTGACCATACTCTACTCTAGAGTTGTGTTTTAATGTATATTAATGTTACTAATGTGTTTACTAGTGGTGATAGCAATGTCAGCAGTGCCTTAAACAACAATGGATCCCCAAAGTGAAGCCACAGATGTTTGGGGATCAATTGTTGTTTCAAGTAAGGTTGACCATACTCTACTCTAGGTTATTTTTAGTATGATTCTGTAAAAATGAATTAATACTAACTAGTGGTGATAGCAATGTCAGCAGTGCCTTTGCTCATGATTGTGAACCAAAGTGAAGCCACAGATGTTTGGTTCACCATCATGAGCACAAGTAAGGTTGACCATACTCTACTCTAGTCAGTTTTATTGATAGTCTTTTCAGTATTATTGATAATCTT
B2: SEQ ID NO: 598: four-hairpin amiRNA, guides SEQ ID NOs 95, 97, 96, 98 to Cricetulus griseus interferon receptor subunit 1 mRNA (nucleic acid)
chain: ATCTGATCTTCTGAAGAAAATATATTTCTTTTTATTCATAGCTCTTAACTAGTGGTGATAGCAATGTCAGCAGTGCCTTAAAATAACACACAAGAGCCATGTGAAGCCACAGATGATGGCTCTTGCGTGTTATTTTCAAGTAAGGTTGACCATACTCTACTCTAGTTATATTCTTTAGGCACGAATGTGTGTTTAAAAAAAATAAAAACTAGTGGTGATAGCAATGTCAGCAGTGCCTTTAAACAGTAAGTAGTCTCTGGGTGAAGCCACAGATGCCAGAGACTAATTACTGTTTACAAGTAAGGTTGACCATACTCTACTCTAGAGTTGTGTTTTAATGTATATTAATGTTACTAATGTGTTTACTAGTGGTGATAGCAATGTCAGCAGTGCCTTTGGGTGTTAATAAAAAGGCAGGTGAAGCCACAGATGCTGCCTTTTTCTTAACACCCACAAGTAAGGTTGACCATACTCTACTCTAGGTTATTTTTAGTATGATTCTGTAAAAATGAATTAATACTAACTAGTGGTGATAGCAATGTCAGCAGTGCCTTTCATTTTGACATACATACTTGGTGAAGCCACAGATGCAAGTATGTACGTCAAAATGACAAGTAAGGTTGACCATACTCTACTCTAGTCAGTTTTATTGATAGTCTTTTCAGTATTATTGATAATCTT

Legend:
[1] = test system: Cricetulus griseus interferon receptor subunit 2 mRNA; assay: Expression of human interferon beta from CHO cells (ELISA), amiRNA to interferon receptor subunit 2; assay type: cell-based; settings: for Titer: 10-day fed batch
Source text: One multi-hairpin amiRNA, with nucleotide sequence SEQ ID NO: 599, comprised four hairpins; the first hairpin comprised a guide strand with nucleotide sequence SEQ ID NO: 103, immediately followed by a loop with nucleotide sequence SEQ ID NO: 241 and passenger strand with nucleotide sequence SEQ ID NO: 188; the second hairpin comprised a guide strand with nucleotide sequence SEQ ID NO: 104, immediately followed by a loop with nucleotide sequence SEQ ID NO: 241 and passenger strand with nucleotide sequence SEQ ID NO: 189; the third hairpin comprised a guide strand with nucleotide sequence SEQ ID NO: 102, immediately followed by a loop with nucleotide sequence SEQ ID NO: 241 and a passenger strand with nucleotide sequence SEQ ID NO: 187; the fourth hairpin comprised a guide strand with nucleotide sequence SEQ ID NO: 105, immediately followed by a loop with nucleotide sequence SEQ ID NO: 241 and a passenger strand with nucleotide sequence SEQ ID NO: 190. Each of these four guide strand sequences was a 22 base sequence that was an exact reverse complement of a different region within the Cricetulus griseus interferon receptor subunit 2 mRNA (with nucleotide sequence SEQ ID NO: 20). Each passenger strand sequence was complementary to its corresponding guide strand sequence, except that the bases in the passenger strand sequences corresponding to the 5′ base of the guide strand and the twelfth base of the guide strand were changed to be non-complementary.
(§1) Each of the five polynucleotides was a transposon which further comprised a left end comprising a 5′-TTAA-3′ target sequence immediately followed by an ITR with SEQ ID NO: 423 (which is an embodiment of SEQ ID NO: 421) and additional sequence with SEQ ID NO: 417 and a right end comprising SEQ ID NO: 419 immediately followed by an ITR with SEQ ID NO: 424 (which is an embodiment of SEQ ID NO: 422) immediately followed by a 5′-TTAA-3′ target sequence. Each transposon further comprised a gene encoding a glutamine synthetase selectable marker. […] Each transposon further comprised the same promoter operably linked to an open reading frame encoding human interferon beta. […]
(§2) Transposons were co-transfected with mRNA encoding transposase with polypeptide sequence SEQ ID NO: 502 into a CHO host lacking a functional glutamine synthetase gene. […] Interferon beta levels in the culture supernatant were measured using an ELISA assay.
(§3) Table 11. […] Transposons for the expression of human interferon beta were constructed, transfected and expressed as described in Section 6.4.1. The amiRNA SEQ ID NO is shown in column A. Following a 10-day fed batch of duplicate cultures for each sample, the concentration of interferon was measured by ELISA. Measured interferon concentrations in culture supernatants are show in columns B and C. […]

[2] = test system: Cricetulus griseus interferon receptor subunit 1 mRNA; assay: Expression of human interferon beta from CHO cells (ELISA), amiRNA to interferon receptor subunit 1; assay type: cell-based; settings: for Titer: 10-day fed batch
Source text: One multi-hairpin amiRNA, with nucleotide sequence SEQ ID NO: 598, comprised four hairpins; the first hairpin comprised a guide strand with nucleotide sequence SEQ ID NO: 95, immediately followed by a loop with nucleotide sequence SEQ ID NO: 241 and passenger strand with nucleotide sequence SEQ ID NO: 180, the second hairpin comprised a guide strand with nucleotide sequence SEQ ID NO: 97, immediately followed by a loop with nucleotide sequence SEQ ID NO: 241 and passenger strand with nucleotide sequence SEQ ID NO: 182, the third hairpin comprised a guide strand with nucleotide sequence SEQ ID NO: 96, immediately followed by a loop with nucleotide sequence SEQ ID NO: 241 and a passenger strand with nucleotide sequence SEQ ID NO: 181, the fourth hairpin comprised a guide strand with nucleotide sequence SEQ ID NO: 98, immediately followed by a loop with nucleotide sequence SEQ ID NO: 241 and a passenger strand with nucleotide sequence SEQ ID NO: 183. Each of these four guide strand sequences was a 22 base sequence that was an exact reverse complement of a different region within the Cricetulus griseus interferon receptor subunit 1 mRNA (with nucleotide sequence SEQ ID NO: 19. Each passenger strand sequence was complementary to its corresponding guide strand sequence, except that the bases in the passenger strand sequences corresponding to the 5′ base of the guide strand and the twelfth base of the guide strand were changed to be non-complementary.
as §1, §2, §3

[3] = control transposon expressed 48 μg/ml
[4] = interferon beta in supernatant, first of duplicate cultures
[5] = interferon beta, second of duplicate cultures

Row | Molecule | Average Titer ([1]; average of duplicate cultures) [µg/mL] | interferon beta expression compared with the control transposon [1, 3] | Titer [1, 4] [µg/mL] | Titer [1, 5] [µg/mL] | Average Titer ([2]; average of duplicate cultures) [µg/mL] | interferon beta expression compared with the control transposon [2, 3] | Titer [2, 4] [µg/mL] | Titer [2, 5] [µg/mL]
1 | B1 | 99.3 | as much as twice the expression levels of interferon beta as the control transposon | 92.9 | 105.7 | – | – | – | –
2 | B2 | – | – | – | – | 34.5 | a small decrease in interferon beta expression | 22.8 | 46.1
